Measurements taken from the supplement of paper PMC9170038.

System: MS2 coat protein
Assay: apparent KD of MS2 coat protein; designed switch direction (-1 OFF switch, 1 ON switch): -1; higher = weaker reporter binding
Method in brief: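 On Illumina chips, designed RNA switches with common flanks were made by stalled E. coli RNA polymerase. Titrations with SNAP-549-labelled MS2 coat protein, doubling from 0.7 or 1.5 nM to 3 µM, were done with no input, with 200 uM small-molecule ligand, or with an oligonucleotide input. Apparent KD is the median per design over clusters, from curve fits of normalised cluster fluorescence.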

[1] = Eterna round: R95, input ligand: FMN 200 uM
[2] = Eterna round: R95, input ligand: microRNA oligo, concentration not stated
[3] = Eterna round: R95, input ligand: none
[4] = input ligand: microRNA oligo, concentration not stated

| Sequence | apparent KD of MS2 coat protein [1] [nM] | apparent KD of MS2 coat protein [2] [nM] | apparent KD of MS2 coat protein [3] [nM] | apparent KD of MS2 coat protein [4] [nM] | apparent KD of MS2 coat protein (input ligand: FMN 200 uM) [nM] | apparent KD of MS2 coat protein (input ligand: none) [nM] |
| --- | --- | --- | --- | --- | --- | --- |
| AAAAAACAAGGAUAUACGGAUGAAGAGAGUCUUAAUUUUUGACAUGAGGAUCACCCAUGUAGAAGGUGUUAAAA [JR_Exclusion2_Sub017] (puzzle: Exclusion 2) | 58.9 | 44.4 | 50.5 | – | – | – |
| AAAAAACAUGAGGAUCACCCAUGUCAGGAUAUCCGAAAAGAAAAAUAAAAAGAAAAAGGGAGAAGGGACAAAAA [April's ex-date #3] (puzzle: Exclusion 1) | 45.6 | 48.6 | 61.3 | – | – | – |
| AAAAAGAUAGGAUAUACAAUAAAAUAAAAUAAAAUAAAUACACAUGAGGAUCACCCAUGUAGAAGGAUCGAAAA [Exclusion 2 #1] (puzzle: Exclusion 2) | 26.6 | 25 | 31.2 | – | – | – |
| AAAAAGGCAGGAUAUACAUGAGGAUCACCCAUGUGAAAAAACAAAAAAAAAAAAAAAGGUAGAAGGGCCGAAAA [Science Triplets #3] (puzzle: Exclusion 3) | 22.1 | 29 | 27.6 | – | – | – |
| AAAAAGUCAGGAUAUGCGAAGGCGUCUGAUAGACGAGGCUAGCAGAAGGGACAUGAGGAUCACCCAUGUAAAGA [Mat - Exclusion 4 - D82] (Eterna round: R96, puzzle: Exclusion 4) | – | – | – | 19.4 | – | – |
| AAAAAGUCAGGAUAUGUAGCAAAAGGUGAUCAAAAAAAGCUACAGAAGGGACAUGAGGAUCACCCAUGUAAAAA [Ex4: 937] (Eterna round: R96, puzzle: Exclusion 4) | – | – | – | 162 | 284 | 183 |
| AAAACAAACUUUUUGCUCGUCUUAUAUGACGCUCGAGUCACAUGAGGAUCACCCAUGUCUUCCUGUUUGAUAGUUGA [JR_SV3TOV2_Sub055] (puzzle: Sensor v3, turn-off variant 2) | 113 | 113 | 142 | – | – | – |
| AAAACGUGAGGAUAUCCAAUAUAUGACAUGAGGAUCACCCAUGUUUCCACUCGUACCUCCGGAGAAGGCACAAUAA [Ex5 #76] (Eterna round: R97, puzzle: Exclusion 5) | – | – | – | – | 37.6 | 56.2 |
| AAAAGCCUAGGAUAUACUUGAGGAUCACCCAAGUAGGGUCCCAUGGACCCGUCCUCGUGUAGAAGGAGGAAAAG [Dierlabe] (Eterna round: R97, puzzle: Exclusion 3) | – | – | – | – | 156 | 60.5 |
| AAAAGCGUCACAGGAUAUUCAGGCGACGCCAAAGAAGAAGGGUGAGGCACAAACAUGAGGAUCACCCAUGUGGUCCUCUCCCGA [Vebiquti] (Eterna round: R96, puzzle: Exclusion NG 1) | – | – | – | 11 | 19.2 | 15.6 |
| AAAAGGCAGGGAGGAUAUGCUUACCUGGGUCGUCUUCAGACAUGAGGAUCACCCAUGUAGUCGACGCAGAAGGCCCUCAAAGCC [Mat - Exclusion NG 2 - Mod of JL - D60] (Eterna round: R96, puzzle: Exclusion NG 2) | – | – | – | 38.9 | 82.6 | 54.1 |
| AAAAGGCAGGGAGGAUAUGCUUGCCUGGGUCGUCUUCAAACAUGAGGAUCACCCAUGUAGUCGACGCAGAAGGCCCUCAAAGCC [Mat - Exclusion NG 2 - Mod of JL - D61] (Eterna round: R96, puzzle: Exclusion NG 2) | – | – | – | 12.1 | 65.2 | 16.5 |
| AAAAGGUCAGGAUAUCGACGCGGUUGGGAGGCAGGUCCGCGCGAGAAGGGACAUGAGGAUCACCCAUGUUAAAA [Excls4-IV] (puzzle: Exclusion 4) | 33.5 | 22.8 | 26.4 | – | – | – |
| AAAAGGUGAGGAUAUCCGACGUUGCACUUGAGGAUCACCCAAGUUCCUCGCGUGCUUUUAGGAGAAGGCACAAAAC [Tegezaza] (Eterna round: R97, puzzle: Exclusion 5) | – | – | – | – | 77.3 | 982 |
